In assay [1] the target is T1, integrin αvβ3, purified from human placenta (human, UniProt P06756 31-1048; P05106 27-788).
T1 construct: mature; Native heterodimer, immobilized on ELISA plates or on the BIAcore chip; biotinylated in capture lift and capture ELISA screens; also called αvβ3 receptor; vitronectin receptor
As to the kind of experiment: SPR (BIAcore), purified Fab over immobilized αvβ3. On the technique in general: SPR reads the build-up and loss of mass on a sensor chip optically.
Procedure: The affinities of select variants were further characterized by utilizing surface plasmon resonance (BIAcore) to measure the association and dissociation rates of purified Fab with immobilized αᵥβ₃. […] To obtain association rate constants (kₒₙ), the binding rate at five different Fab concentrations, ranging from 5-40 μg/ml in 50 mM Tris-HCl, pH 7.4, 100 mM NaCl, 2 mM CaCl₂, and 1 mM MgCl₂, was determined at a flow rate of 10 μl/min. Dissociation rate constants (koff) were the average of five measurements obtained by analyzing the dissociation phase at an increased flow rate (40 μl/min). Sensorgrams were analyzed with the BIAevaluation 2.1 program (Pharmacia). Residual Fab was removed after each measurement with 10 mM HCl, 2 mM CaCl₂ and 1 mM MgCl₂.

In assay [2] the target is T1, integrin αvβ3, purified from human …. Briefly: ELISA titration of Fab on immobilized αvβ3. For orientation: In an ELISA, binding on a coated surface is turned into a signal by an enzyme label.
Procedure: Just prior to use, the plates were washed two times and were then incubated 1 h at 25° C. with various dilutions of Fab. […] All dilutions and washes were in 50 mM Tris-HCl, pH 7.4, 100 mM NaCl, 2 mM CaCl₂, and 1 mM MgCl₂.
Assay [3] has the same target. Briefly: SPR (BIAcore), purified Fab over immobilized αvβ3. The source holds these as a separate data set.

Where only a bound is given, the exact number is not on record here.

T1 sequence (P06756 31-1048, form in doubt, chain 1 of 2): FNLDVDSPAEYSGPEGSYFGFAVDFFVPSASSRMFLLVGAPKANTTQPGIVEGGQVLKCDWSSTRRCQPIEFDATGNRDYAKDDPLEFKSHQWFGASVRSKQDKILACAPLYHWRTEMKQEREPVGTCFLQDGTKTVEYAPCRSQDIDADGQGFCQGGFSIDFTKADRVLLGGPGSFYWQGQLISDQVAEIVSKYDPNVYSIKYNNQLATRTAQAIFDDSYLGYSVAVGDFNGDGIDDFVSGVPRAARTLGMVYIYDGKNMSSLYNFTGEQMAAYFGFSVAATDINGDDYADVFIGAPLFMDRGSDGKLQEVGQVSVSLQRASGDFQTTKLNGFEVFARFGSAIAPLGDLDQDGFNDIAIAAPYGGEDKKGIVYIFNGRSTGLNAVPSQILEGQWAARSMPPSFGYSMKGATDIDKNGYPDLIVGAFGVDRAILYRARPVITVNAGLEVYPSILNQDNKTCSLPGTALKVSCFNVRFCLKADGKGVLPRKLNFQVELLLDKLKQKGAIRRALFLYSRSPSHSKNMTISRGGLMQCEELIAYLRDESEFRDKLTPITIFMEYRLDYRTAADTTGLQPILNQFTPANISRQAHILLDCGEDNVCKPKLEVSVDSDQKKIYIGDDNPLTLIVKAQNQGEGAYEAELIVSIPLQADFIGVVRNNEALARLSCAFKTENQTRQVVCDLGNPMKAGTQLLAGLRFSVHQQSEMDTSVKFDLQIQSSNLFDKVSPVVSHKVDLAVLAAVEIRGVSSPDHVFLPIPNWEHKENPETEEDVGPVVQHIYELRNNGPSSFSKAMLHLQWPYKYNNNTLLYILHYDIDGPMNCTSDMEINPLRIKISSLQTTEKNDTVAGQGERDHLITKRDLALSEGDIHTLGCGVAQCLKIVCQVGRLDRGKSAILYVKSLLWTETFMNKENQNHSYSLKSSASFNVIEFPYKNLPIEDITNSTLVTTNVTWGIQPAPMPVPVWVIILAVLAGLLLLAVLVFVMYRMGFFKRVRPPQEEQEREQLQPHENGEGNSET
T1 sequence (P05106 27-788, form in doubt, chain 2 of 2): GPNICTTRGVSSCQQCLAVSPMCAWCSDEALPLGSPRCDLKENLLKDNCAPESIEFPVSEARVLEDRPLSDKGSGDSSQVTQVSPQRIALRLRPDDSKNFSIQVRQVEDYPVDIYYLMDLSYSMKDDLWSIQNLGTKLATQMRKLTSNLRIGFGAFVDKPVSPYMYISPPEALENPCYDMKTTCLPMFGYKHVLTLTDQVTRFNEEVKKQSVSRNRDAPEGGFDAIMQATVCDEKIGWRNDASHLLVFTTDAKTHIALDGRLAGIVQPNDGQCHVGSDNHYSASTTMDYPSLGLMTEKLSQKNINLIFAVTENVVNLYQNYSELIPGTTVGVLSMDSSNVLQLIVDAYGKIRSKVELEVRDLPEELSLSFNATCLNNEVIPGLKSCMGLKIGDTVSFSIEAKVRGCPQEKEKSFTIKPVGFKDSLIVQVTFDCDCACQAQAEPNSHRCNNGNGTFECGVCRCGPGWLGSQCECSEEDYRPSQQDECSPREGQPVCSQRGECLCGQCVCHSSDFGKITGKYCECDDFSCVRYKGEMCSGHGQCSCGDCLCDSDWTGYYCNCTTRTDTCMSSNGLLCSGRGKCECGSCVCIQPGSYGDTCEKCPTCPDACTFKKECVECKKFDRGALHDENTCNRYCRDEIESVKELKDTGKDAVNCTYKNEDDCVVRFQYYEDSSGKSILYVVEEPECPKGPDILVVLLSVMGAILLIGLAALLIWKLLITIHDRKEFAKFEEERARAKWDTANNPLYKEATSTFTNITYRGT

B1: LM609 grafted antibody variant A102 (Fab, V domains shown)
VH: QVQLVESGGGVVQPGRSLRLSCAASGFTFSSYDMSWVRQAPGKGLEWVAKVSSGGGSTYYLDTVQGRFTISRDNSKNTLYLQMNSLRAEDTAVYYCARHNYGSFAAWGQGTTVTVSS
VL: EIVLTQSPATLSLSPGERATLSCQASQSISNHLHWYQQRPGQAPRLLIRYRSQSISGIPARFSGSGSGTDFTLTISSLEPEDFAVYYCQQSGSWPHTFGGGTKVEIK
notes: Fab
The Kd is the free concentration of one partner at which half of the binding sites on the other are occupied at equilibrium, for simple one-to-one binding. Low readings indicate a tighter complex, high ones a looser complex. By koff is commonly meant the first-order rate constant of dissociation. Higher therefore signals fast dissociation. A word on the kon: it is a measure of how fast the partners come together. Higher therefore signals faster complex formation. As for B1, in assay [1], the affinity, expressed as Kd, was 8.3 nM; the koff is 0.00227 s⁻¹; the kon turned out to be 275000 M⁻¹ s⁻¹. Besides, the “fold enhanced binding over parent LM609 grafted antibody” value (“fold enhanced binding” for short) in assay [2] is above 3 fold.

B2: LM609 grafted antibody variant T102 (Fab, V domains shown)
VH: QVQLVESGGGVVQPGRSLRLSCAASGFTFSSYDMSWVRQAPGKGLEWVAKVSSGGGSTYYLDTVQGRFTISRDNSKNTLYLQMNSLRAEDTAVYYCARHNYGSFATWGQGTTVTVSS
VL: EIVLTQSPATLSLSPGERATLSCQASQSISNHLHWYQQRPGQAPRLLIRYRSQSISGIPARFSGSGSGTDFTLTISSLEPEDFAVYYCQQSGSWPHTFGGGTKVEIK
notes: Fab
In assay [1], B2 showed a Kd of 5.8 nM, a koff of 0.00143 s⁻¹ and a kon of 246000 M⁻¹ s⁻¹. The “fold enhanced binding” value in assay [2] is above 3 fold.

B3: LM609 grafted antibody variant D101 (Fab, V domains shown)
VH: QVQLVESGGGVVQPGRSLRLSCAASGFTFSSYDMSWVRQAPGKGLEWVAKVSSGGGSTYYLDTVQGRFTISRDNSKNTLYLQMNSLRAEDTAVYYCARHNYGSFDYWGQGTTVTVSS
VL: EIVLTQSPATLSLSPGERATLSCQASQSISNHLHWYQQRPGQAPRLLIRYRSQSISGIPARFSGSGSGTDFTLTISSLEPEDFAVYYCQQSGSWPHTFGGGTKVEIK
notes: Fab
Turning to B3, the “fold enhanced binding” value in assay [2] is above 3 fold.

B4: LM609 grafted antibody variant P60 (Fab, V domains shown)
VH: QVQLVESGGGVVQPGRSLRLSCAASGFTFSSYDMSWVRQAPGKGLEWVAKVSSGGGSTYYPDTVQGRFTISRDNSKNTLYLQMNSLRAEDTAVYYCARHNYGSFAYWGQGTTVTVSS
VL: EIVLTQSPATLSLSPGERATLSCQASQSISNHLHWYQQRPGQAPRLLIRYRSQSISGIPARFSGSGSGTDFTLTISSLEPEDFAVYYCQQSGSWPHTFGGGTKVEIK
notes: Fab
In assay [1], B4 showed a Kd of 5.8 nM, an off-rate constant (koff) of 0.00185 s⁻¹ and a kon of 318000 M⁻¹ s⁻¹. Also, in assay [2], the “fold enhanced binding” value was above 3 fold.

B5: LM609 grafted antibody variant L96 (Fab, V domains shown)
VH: QVQLVESGGGVVQPGRSLRLSCAASGFTFSSYDMSWVRQAPGKGLEWVAKVSSGGGSTYYLDTVQGRFTISRDNSKNTLYLQMNSLRAEDTAVYYCARHNYGSFAYWGQGTTVTVSS
VL: EIVLTQSPATLSLSPGERATLSCQASQSISNHLHWYQQRPGQAPRLLIRYRSQSISGIPARFSGSGSGTDFTLTISSLEPEDFAVYYCQQSGSWPLTFGGGTKVEIK
notes: Fab
In assay [1], B5 showed a Kd of 9.2 nM, a koff of 0.00223 s⁻¹ and a kon of 243000 M⁻¹ s⁻¹. In addition, in assay [2], the “fold enhanced binding” value was above 3 fold.

B6: LM609 grafted antibody variant E64 (Fab, V domains shown)
VH: QVQLVESGGGVVQPGRSLRLSCAASGFTFSSYDMSWVRQAPGKGLEWVAKVSSGGGSTYYLDTVEGRFTISRDNSKNTLYLQMNSLRAEDTAVYYCARHNYGSFAYWGQGTTVTVSS
VL: EIVLTQSPATLSLSPGERATLSCQASQSISNHLHWYQQRPGQAPRLLIRYRSQSISGIPARFSGSGSGTDFTLTISSLEPEDFAVYYCQQSGSWPHTFGGGTKVEIK
notes: Fab
Consider B6, for which, in assay [2], the “fold enhanced binding” value was above 3 fold.

B7: LM609 grafted antibody variant K52 (Fab, V domains shown)
VH: QVQLVESGGGVVQPGRSLRLSCAASGFTFSSYDMSWVRQAPGKGLEWVAKVKSGGGSTYYLDTVQGRFTISRDNSKNTLYLQMNSLRAEDTAVYYCARHNYGSFAYWGQGTTVTVSS
VL: EIVLTQSPATLSLSPGERATLSCQASQSISNHLHWYQQRPGQAPRLLIRYRSQSISGIPARFSGSGSGTDFTLTISSLEPEDFAVYYCQQSGSWPHTFGGGTKVEIK
notes: Fab
Take B7: in assay [1], the Kd was 12.2 nM, the koff amounted to 0.00218 s⁻¹ and the kon came to 178000 M⁻¹ s⁻¹. In addition, in assay [2], the “fold enhanced binding” value was above 3 fold.

B8: LM609 grafted antibody variant M102 (Fab, V domains shown)
VH: QVQLVESGGGVVQPGRSLRLSCAASGFTFSSYDMSWVRQAPGKGLEWVAKVSSGGGSTYYLDTVQGRFTISRDNSKNTLYLQMNSLRAEDTAVYYCARHNYGSFAMWGQGTTVTVSS
VL: EIVLTQSPATLSLSPGERATLSCQASQSISNHLHWYQQRPGQAPRLLIRYRSQSISGIPARFSGSGSGTDFTLTISSLEPEDFAVYYCQQSGSWPHTFGGGTKVEIK
notes: Fab
Turning to B8, the “fold enhanced binding” value in assay [2] is above 3 fold.

B9: LM609 grafted antibody variant E102 (Fab, V domains shown)
VH: QVQLVESGGGVVQPGRSLRLSCAASGFTFSSYDMSWVRQAPGKGLEWVAKVSSGGGSTYYLDTVQGRFTISRDNSKNTLYLQMNSLRAEDTAVYYCARHNYGSFAEWGQGTTVTVSS
VL: EIVLTQSPATLSLSPGERATLSCQASQSISNHLHWYQQRPGQAPRLLIRYRSQSISGIPARFSGSGSGTDFTLTISSLEPEDFAVYYCQQSGSWPHTFGGGTKVEIK
notes: Fab
On to B9, for which the “fold enhanced binding” value in assay [2] is above 3 fold.

B10: LM609 grafted antibody variant L30 (Fab, V domains shown)
VH: QVQLVESGGGVVQPGRSLRLSCAASGFTFLSYDMSWVRQAPGKGLEWVAKVSSGGGSTYYLDTVQGRFTISRDNSKNTLYLQMNSLRAEDTAVYYCARHNYGSFAYWGQGTTVTVSS
VL: EIVLTQSPATLSLSPGERATLSCQASQSISNHLHWYQQRPGQAPRLLIRYRSQSISGIPARFSGSGSGTDFTLTISSLEPEDFAVYYCQQSGSWPHTFGGGTKVEIK
notes: Fab
For B10, the “fold enhanced binding” value in assay [2] was above 3 fold.

B11: LM609 grafted antibody variant F32 (Fab, V domains shown)
VH: QVQLVESGGGVVQPGRSLRLSCAASGFTFSSYDMSWVRQAPGKGLEWVAKVSSGGGSTYYLDTVQGRFTISRDNSKNTLYLQMNSLRAEDTAVYYCARHNYGSFAYWGQGTTVTVSS
VL: EIVLTQSPATLSLSPGERATLSCQASQSISNFLHWYQQRPGQAPRLLIRYRSQSISGIPARFSGSGSGTDFTLTISSLEPEDFAVYYCQQSGSWPHTFGGGTKVEIK
notes: Fab
In the case of B11, in assay [1], the Kd turned out to be 2.5 nM, the koff came out at 0.00042 s⁻¹ and the kon is 167000 M⁻¹ s⁻¹. In assay [2], the “fold enhanced binding” value is above 3 fold. Moreover, in assay [3], the “fold slower dissociation than LM609 grafted antibody” value was 11.8 fold.

B12: LM609 grafted antibody variant S51 (Fab, V domains shown)
VH: QVQLVESGGGVVQPGRSLRLSCAASGFTFSSYDMSWVRQAPGKGLEWVAKVSSGGGSTYYLDTVQGRFTISRDNSKNTLYLQMNSLRAEDTAVYYCARHNYGSFAYWGQGTTVTVSS
VL: EIVLTQSPATLSLSPGERATLSCQASQSISNHLHWYQQRPGQAPRLLIRYSSQSISGIPARFSGSGSGTDFTLTISSLEPEDFAVYYCQQSGSWPHTFGGGTKVEIK
notes: Fab
Turning to B12, the “fold enhanced binding” value in assay [2] was above 3 fold.

B13: LM609 grafted antibody variant W29 (Fab, V domains shown)
VH: QVQLVESGGGVVQPGRSLRLSCAASGFTWSSYDMSWVRQAPGKGLEWVAKVSSGGGSTYYLDTVQGRFTISRDNSKNTLYLQMNSLRAEDTAVYYCARHNYGSFAYWGQGTTVTVSS
VL: EIVLTQSPATLSLSPGERATLSCQASQSISNHLHWYQQRPGQAPRLLIRYRSQSISGIPARFSGSGSGTDFTLTISSLEPEDFAVYYCQQSGSWPHTFGGGTKVEIK
notes: Fab
Regarding B13, the “fold enhanced binding” value in assay [2] is above 3 fold.

B14: LM609 grafted antibody variant Q96 (Fab, V domains shown)
VH: QVQLVESGGGVVQPGRSLRLSCAASGFTFSSYDMSWVRQAPGKGLEWVAKVSSGGGSTYYLDTVQGRFTISRDNSKNTLYLQMNSLRAEDTAVYYCARHNYGSFAYWGQGTTVTVSS
VL: EIVLTQSPATLSLSPGERATLSCQASQSISNHLHWYQQRPGQAPRLLIRYRSQSISGIPARFSGSGSGTDFTLTISSLEPEDFAVYYCQQSGSWPQTFGGGTKVEIK
notes: Fab
Take B14: the “fold enhanced binding” value in assay [2] was above 3 fold.

B15: LM609 grafted antibody variant T92 (Fab, V domains shown)
VH: QVQLVESGGGVVQPGRSLRLSCAASGFTFSSYDMSWVRQAPGKGLEWVAKVSSGGGSTYYLDTVQGRFTISRDNSKNTLYLQMNSLRAEDTAVYYCARHNYGSFAYWGQGTTVTVSS
VL: EIVLTQSPATLSLSPGERATLSCQASQSISNHLHWYQQRPGQAPRLLIRYRSQSISGIPARFSGSGSGTDFTLTISSLEPEDFAVYYCQQSTSWPHTFGGGTKVEIK
notes: Fab
In the case of B15, the “fold enhanced binding” value in assay [2] is above 3 fold.

B16: LM609 grafted antibody variant D102 (Fab, V domains shown)
VH: QVQLVESGGGVVQPGRSLRLSCAASGFTFSSYDMSWVRQAPGKGLEWVAKVSSGGGSTYYLDTVQGRFTISRDNSKNTLYLQMNSLRAEDTAVYYCARHNYGSFADWGQGTTVTVSS
VL: EIVLTQSPATLSLSPGERATLSCQASQSISNHLHWYQQRPGQAPRLLIRYRSQSISGIPARFSGSGSGTDFTLTISSLEPEDFAVYYCQQSGSWPHTFGGGTKVEIK
notes: Fab
In assay [1], B16 came in with a Kd of 3.5 nM, an off-rate constant (koff) of 0.00097 s⁻¹ and a kon of 276000 M⁻¹ s⁻¹. For the same molecule, the “fold enhanced binding” value in assay [2] was above 3 fold.

B17: LM609 grafted antibody variant N92 (Fab, V domains shown)
VH: QVQLVESGGGVVQPGRSLRLSCAASGFTFSSYDMSWVRQAPGKGLEWVAKVSSGGGSTYYLDTVQGRFTISRDNSKNTLYLQMNSLRAEDTAVYYCARHNYGSFAYWGQGTTVTVSS
VL: EIVLTQSPATLSLSPGERATLSCQASQSISNHLHWYQQRPGQAPRLLIRYRSQSISGIPARFSGSGSGTDFTLTISSLEPEDFAVYYCQQSNSWPHTFGGGTKVEIK
notes: Fab; also called LM609 grafted antibody having Asn at position 92 of light chain CDR3
In the case of B17, in assay [1], the Kd is 5.7 nM, the koff stood at 0.00135 s⁻¹ and the on-rate (kon) came out at 236000 M⁻¹ s⁻¹. The “fold enhanced binding” value in assay [2] was above 3 fold.

B18: LM609 grafted antibody variant T27 (Fab, V domains shown)
VH: QVQLVESGGGVVQPGRSLRLSCAASGTTFSSYDMSWVRQAPGKGLEWVAKVSSGGGSTYYLDTVQGRFTISRDNSKNTLYLQMNSLRAEDTAVYYCARHNYGSFAYWGQGTTVTVSS
VL: EIVLTQSPATLSLSPGERATLSCQASQSISNHLHWYQQRPGQAPRLLIRYRSQSISGIPARFSGSGSGTDFTLTISSLEPEDFAVYYCQQSGSWPHTFGGGTKVEIK
notes: Fab
For B18, in assay [2], the “fold enhanced binding” value is above 3 fold.
